The target of assay [1] is SNAP-tagged S. cerevisiae Arp2/3 complex labeled with Dy649 (Arp2/3-SNAP649) (S. cerevisiae) (UniProt P32381).
Assay [2] shares this target. The assay is described as follows: colocalization single molecule spectroscopy (CoSMoS, TIRF); biotinylated AF488-actin filaments tethered to the slide; 5 nM Arp2/3-SNAP649, 5 nM Cy3-diVCA construct and 1 μM actin (10% AF488 labeled) in solution; TIRF buffer; time resolution 0.15 s.
Assay [3] concerns the target SNAP-tagged S. cerevisiae Arp2/3 complex labeled with Dy649 and biotin (Arp2/3-SNAP649-biotin) (S. cerevisiae) (UniProt P32381). The assay is described as follows: colocalization single molecule spectroscopy (CoSMoS, TIRF); Arp2/3-SNAP649-biotin tethered to the slide through streptavidin; 0.1–2 nM Cy3-diVCA construct and 1 μM actin (10% AF488 labeled) in solution; periods with no filament colocalized; TIRF buffer (50 mM KCl, 1 mM MgCl2, 1 mM EGTA, 10 mM imidazole pH 7.2).

Assay [4] concerns the target SNAP-tagged S. cerevisiae Arp2/3 complex labeled with Dy649 (Arp2/3-SNAP649) (S. cerevisiae) (UniProt P32381). The source holds these as a separate data set.
Assay [5] deals with Endogenous bovine Arp2/3 complex (bovine (endogenous in calf thymus)) (UniProt A7MB62). The assay is described as follows: fluorescence polarisation; fluorescence anisotropy competition: VVCA-A462C-AF594 reporter with 200 nM bovine Arp2/3 complex and increasing unlabeled GST-VCA, GST-VVCA or GST-VCA-C*; fit to a competition-binding isotherm. A general note: In fluorescence polarisation assays a small probe gives low polarisation when free and higher when bound to something large.

Assay [6] addresses Surface-tethered actin filaments (10% AF488 labeled, 1% biotinylated) (rabbit) (UniProt P68135). In words: colocalization single molecule spectroscopy (CoSMoS, TIRF); biotinylated AF488-actin filaments tethered to the slide; Arp2/3-SNAP649 and 1 μM actin in solution, no VCA; TIRF buffer; rate constant per filament subunit.
Assay [7] shares this target. In words: colocalization single molecule spectroscopy (CoSMoS, TIRF); biotinylated AF488-actin filaments tethered to the slide; 5 nM Arp2/3-SNAP649, 5 nM Cy3-diVCA construct and 1 μM actin (10% AF488 labeled) in solution; TIRF buffer; time resolution 0.15 s.
For assay [8], the target named is VVCA-A462C-AF594 (N-WASP 393–505, C431A, A462C, AlexaFluor 594 labeled) (human) (UniProt O00401). The assay is described as follows: fluorescence polarisation; fluorescence anisotropy, direct binding of 20 nM VVCA-A462C-AF594 to bovine Arp2/3 complex; no actin; 10 min incubation.
VVCA-A462C-AF594 (N-WASP 393–505, C431A, A462C, AlexaFluor 594 labeled) (human), sequence (O00401 393-505 C431A/A462C): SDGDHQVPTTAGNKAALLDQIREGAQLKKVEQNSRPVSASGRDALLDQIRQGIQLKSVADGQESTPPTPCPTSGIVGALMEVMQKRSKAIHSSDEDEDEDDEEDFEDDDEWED
In assay [9] the target is VCA-AF594 (N-WASP VCA 430–505, S430C, C431A, AlexaFluor 594 labeled) (human) (UniProt O00401). The assay is described as follows: fluorescence polarisation; fluorescence anisotropy of 10 nM VCA-AF594 with increasing non-polymerizable Drosophila 5C actin or yeast Arp2/3 complex; single site binding isotherm.
VCA-AF594 (N-WASP VCA 430–505, S430C, C431A, AlexaFluor 594 labeled) (human), sequence (O00401 430-505 S430C/C431A): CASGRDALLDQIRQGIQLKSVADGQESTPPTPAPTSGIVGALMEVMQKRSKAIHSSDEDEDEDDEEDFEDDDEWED

Cy3-diVCA wild-type (N-WASP VCA covalently dimerized with a Cy3 bis-maleimide), sequence (O00401 other isoform, or with tags, fused parts or gaps): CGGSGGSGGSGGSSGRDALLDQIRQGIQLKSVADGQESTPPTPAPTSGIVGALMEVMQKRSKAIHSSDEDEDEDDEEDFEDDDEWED
Cy3-diVCA-A* (Δ486–488), sequence (O00401 other isoform, or with tags, fused parts or gaps mutant): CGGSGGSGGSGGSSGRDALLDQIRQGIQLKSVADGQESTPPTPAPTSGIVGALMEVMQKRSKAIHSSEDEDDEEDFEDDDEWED

As a reminder, the kon is the second-order rate constant of association. A high value points to faster complex formation. For the substance “Cy3-diVCA-V* (D435S/A436D) (from UniProt O00401 432-505) (domain or fragment)”, the fold stimulation of Arp2/3 complex-dependent nucleation in bulk pyrene-actin assays (barbed ends at the midpoint; 25 nM diVCA construct, 10 nM Arp2/3-SNAP) in [1] was 10 fold. In assay [2], this substance had a fAV, fraction of Arp2/3 complexes that bind filament sides coincident with diVCA of 0.7; a kV*, rate constant for diVCA release from the nascent branch (filament-bound Arp2/3 complex) of 0.08 s⁻¹; a τV*, mean lifetime of diVCA on nascent branches (filament-bound Arp2/3 complex) of 0.54 s. In [3], this substance showed a kon of 7e+07 M⁻¹ s⁻¹; a τV1, first characteristic lifetime of diVCA on isolated Arp2/3 complexes of 3.6 s; a τV2, second characteristic lifetime of diVCA on isolated Arp2/3 complexes of 56 s. Besides, the kB, second order rate constant for branch formation (per mother filament subunit), single-molecule TIRF in assay [4] was 320 M⁻¹ s⁻¹.

On to “Cy3-diVCA-C* (I467A) (from UniProt O00401 432-505) (domain or fragment)”, for which the fold stimulation of Arp2/3 complex-dependent nucleation in bulk pyrene-actin assays (barbed ends at the midpoint; 25 nM diVCA construct, 10 nM Arp2/3-SNAP) in assay [1] turned out to be 6 fold. For the same substance, in [2], the fAV, fraction of Arp2/3 complexes that bind filament sides coincident with diVCA stood at 0.59; the kV*, rate constant for diVCA release from the nascent branch (filament-bound Arp2/3 complex) is 0.05 s⁻¹; the τV*, mean lifetime of diVCA on nascent branches (filament-bound Arp2/3 complex) came to 0.37 s. In assay [3], the kon is 6e+07 M⁻¹ s⁻¹; the τV1, first characteristic lifetime of diVCA on isolated Arp2/3 complexes worked out at 2.4 s; the τV2, second characteristic lifetime of diVCA on isolated Arp2/3 complexes was found to be 14 s. In addition, in [4], the kB, second order rate constant for branch formation (per mother filament subunit), single-molecule TIRF is 200 M⁻¹ s⁻¹.

As for “Cy3-diVCA-A* (Δ486–488) (from UniProt O00401 432-505) (domain or fragment)”, the fold stimulation of Arp2/3 complex-dependent nucleation in bulk pyrene-actin assays (barbed ends at the midpoint; 25 nM diVCA construct, 10 nM Arp2/3-SNAP) in [1] amounted to 1.4 fold. In assay [2], this substance registered a fAV, fraction of Arp2/3 complexes that bind filament sides coincident with diVCA of 0.7; a kV*, rate constant for diVCA release from the nascent branch (filament-bound Arp2/3 complex) of 0.022 s⁻¹; a τV*, mean lifetime of diVCA on nascent branches (filament-bound Arp2/3 complex) of 0.7 s. In [3], this substance displayed a kon of 1.6e+08 M⁻¹ s⁻¹; a τV1, first characteristic lifetime of diVCA on isolated Arp2/3 complexes of 40 s; a τV2, second characteristic lifetime of diVCA on isolated Arp2/3 complexes of 250 s. In addition, the kB, second order rate constant for branch formation (per mother filament subunit), single-molecule TIRF in assay [4] came to 100 M⁻¹ s⁻¹.

Regarding “GST-VCA-C* (GST fusion of N-WASP VCA with the C* mutation) (from UniProt O00401 432-505) (domain or fragment)”, the fold weaker affinity than GST-VCA in assay [5] amounted to 4 fold.

For “SNAP-tagged S. cerevisiae Arp2/3 complex labeled with Dy649 (Arp2/3-SNAP649) (from UniProt P32381 1-391; P47117 1-449; Q05933 1-178)”, the kon in assay [6] is 20000 M⁻¹ s⁻¹. In assay [7], this substance displayed a kA+ (binding to filament sides, per filament subunit) with diVCA A* present of 8000 M⁻¹ s⁻¹; a kA+ (binding to filament sides, per filament subunit) with diVCA C* present of 20000 M⁻¹ s⁻¹; a kA+ (binding to filament sides, per filament subunit) with diVCA V* present of 13000 M⁻¹ s⁻¹; a kA+ (binding to filament sides, per filament subunit) with diVCA w.t. present of 21000 M⁻¹ s⁻¹.

For orientation: Kd means the free concentration of one partner at which half of the binding sites on the other are occupied at equilibrium, for simple one-to-one binding. The substance “Cy3-diVCA wild-type (N-WASP VCA covalently dimerized with a Cy3 bis-maleimide) (from UniProt O00401 432-505) (domain or fragment)” returned a fold stimulation of Arp2/3 complex-dependent nucleation in bulk pyrene-actin assays (barbed ends at the midpoint; 25 nM diVCA construct, 10 nM Arp2/3-SNAP) in [1] of 2 fold. In [2], the fAV, fraction of Arp2/3 complexes that bind filament sides coincident with diVCA was 0.83; the kV*, rate constant for diVCA release from the nascent branch (filament-bound Arp2/3 complex) amounted to 0.04 s⁻¹; the τV*, mean lifetime of diVCA on nascent branches (filament-bound Arp2/3 complex) was determined as 0.7 s. In assay [3], the Kd is under 2 nM; the kon is 1.6e+08 M⁻¹ s⁻¹; the percent of tethered Arp2/3 complexes observed to bind diVCA was over 80%; the τV1, first characteristic lifetime of diVCA on isolated Arp2/3 complexes stood at 8 s. Besides, the τV2, second characteristic lifetime of diVCA on isolated Arp2/3 complexes in assay [3] amounted to 61 s. The substance further had a kB, second order rate constant for branch formation (per mother filament subunit), single-molecule TIRF in [4] of 160 M⁻¹ s⁻¹.

As to “Endogenous bovine Arp2/3 complex (from UniProt A7MB62 1-394; P61157 1-418)”, the Kd in assay [8] was determined as 150 nM.

In the case of “S. cerevisiae Arp2/3 complex purified from commercial baker's yeast (from UniProt P32381 1-391; P47117 1-449; Q05933 1-178)”, in assay [9], the Kd was 65 nM.
